# Like-named read-outs stand apart in the source and are kept apart here.
# B1: Ret4 21-mer (dsDNA)
# DNA 1: CCAGGAGCTTAGGAGGGGGAG
# DNA 2: CCTCCCCCTCCTAAGCTCCTG
# B2: NRE-Ret4 38-mer biotinylated (dsDNA)
# DNA 1: CCAGATGCTGATTCAGCCAGGAGCTTAGGAGGGGGAGG
# DNA 2: CCTCCCCCTCCTAAGCTCCTGGCTGAATCAGCATCTGG
# B3: Ret4 20-mer biotinylated (dsDNA)
# DNA 1: CAGGAGCTTAGGAGGGGGAG
# DNA 2: CTCCCCCTCCTAAGCTCCTG
# Columns and labels:
# [1] = target: T1, CRX HD E42K (UniProt O43186 31-107, E42K); assay: SEC-MALS
# [2] = target: T2, CRX HD R41Q (UniProt O43186 31-107, R41Q); assay: SEC-MALS
# [3] = target: Cy3-CRX HD (UniProt O43186 31-107); assay: smTIRFM
# [4] = target: T3, Cy3-CRX HD;NRL DBD (;, UniProt O43186;P54845 31-107;128-237, |); assay: smTIRFM
# [5] = target: T3, Cy3-CRX HD;NRL DBD; assay: smTIRFM; remark: listed apart in the source
# [6] = target: CRX HD (His) (UniProt O43186 31-107); assay: BLI
# [7] = target: T1, CRX HD E42K; assay: BLI
# [8] = target: T2, CRX HD R41Q; assay: BLI
# [9] = target: CRX HD R90W (UniProt O43186 31-107, R90W); assay: BLI
# Chain of CRX HD R90W (O43186 31-107 R90W): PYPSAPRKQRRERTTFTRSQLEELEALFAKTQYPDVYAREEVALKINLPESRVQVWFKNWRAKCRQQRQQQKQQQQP
# T3 sequence (O43186 31-107, chain 1 of 2): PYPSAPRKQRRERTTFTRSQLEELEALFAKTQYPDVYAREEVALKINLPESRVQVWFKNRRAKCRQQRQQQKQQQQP
# T3 sequence (P54845 128-237, chain 2 of 2): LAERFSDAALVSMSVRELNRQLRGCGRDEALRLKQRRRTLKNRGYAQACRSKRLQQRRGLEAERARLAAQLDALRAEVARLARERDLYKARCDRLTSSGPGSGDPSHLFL
# T2 sequence (O43186 31-107 R41Q): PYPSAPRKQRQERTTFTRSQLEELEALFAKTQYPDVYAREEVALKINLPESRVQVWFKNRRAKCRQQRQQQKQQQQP
# T1 sequence (O43186 31-107 E42K): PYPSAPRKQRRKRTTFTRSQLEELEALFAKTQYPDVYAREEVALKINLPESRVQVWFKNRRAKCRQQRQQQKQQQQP
# Chain of Cy3-CRX HD (O43186 31-107): as the sequence (O43186 31-107, chain 1 of 2) above
# Chain of CRX HD (His) (O43186 31-107): as the sequence (O43186 31-107, chain 1 of 2) above
binder,measurement,setting,value
B1,binding result,[1],binds
same,binding result,[2],binds
B2,Kd,[3],55.1 nM
same,Kd,[4],39.6 nM
same,Kd,[5],28 nM
B3,Kd,[6],430 ± 30 nM
same,Kd,[7],30 ± 10 nM
same,Kd,[8],1250 ± 30 nM
same,Kd,[9],900 ± 30 nM
